Positions count from the first letter of the chain named.
B1: anti-mutCALR antibody clone 41 (antibody, human IgG1, lambda, V domains shown)
VH: EVQLVQSGAEVKKPGASVKVSCKVSGYTLTELSMHWVRQAPGKGLEWMGLVDPEDGETIYAQKFQGRVTMTEDTSTDTAYMELSSLRSEDTAVYYCAREEWSGDGDDAFDIWGQGTMVTVSS
VL: QSVLTQPPSVSAAPGQKVTISCSGSSSNIGSYSVSWYQQLPGTAPKLLIYDNNKRPSGIPDRFSGSNSGTSATLGITGLQTGDEADYYCGTWDSSLSAWVFGGGTKLTVLG
notes: human IgG1; group 4
B2: anti-mutCALR antibody clone 42 (antibody, human IgG1, lambda, V domains shown)
VH: B1 VH
VL: B1 VL with N52D, G75S
notes: human IgG1; group 4
B3: anti-mutCALR antibody clone 40 (antibody, human IgG1, lambda, V domains shown)
VH: B1 VH with L32S
VL: B1 VL
notes: human IgG1; group 4
B4: anti-mutCALR antibody clone 33 (antibody, human IgG1, lambda, V domains shown)
VH: QVQLVQSGAEVKKPGATVKISCKVSGYSFTDYFIHWVQQAPGKGLAWVGLVDPEDGETIYAEKFQGRVTITADTSTDTAYMELSSLRSEDTAVYYCATPGGILTDPDAFDIWGQGTMVTVSS
VL: QSALTQPRSVSGSPGQSVTISCAGTGSDVGGYNHVSWYQHHPGKAPKLMIYDVNKRPSGVPDRFSGSKSGNTASLTISGLQAEDEADYYCSSYIPSSTRWVFGGGTKLTVLG
notes: human IgG1; group 2
B5: anti-mutCALR antibody clone 34 (antibody, human IgG1, lambda, V domains shown)
VH: B4 VH
VL: QSALTQPASVSGSPGQSITISCTGTSSDVGGYNYVSWYQQHPGKAPKLMIYEVSNRPSGVSNRFSGSKSGNTASLTISGLQAEDEADYYCSSYTSSSTYVFGTGTKVTVLG
notes: human IgG1; group 2
B6: anti-mutCALR antibody clone 52 (antibody, human IgG1, kappa, V domains shown)
VH: EVQLVQSGAEVKKPGASVKVSCKVSGYTLTELSMHWVRQAPGKGLEWMGLVDPEDGETIYAEKFQGRVTITADTSTDTAYMELSSPRSEDTAVYYCATTIGDDYFDYWGQGTLVTVSS
VL: not shown
B7: anti-mutCALR antibody clone 38 (antibody, human IgG1, kappa, V domains shown)
VH: EVQPVQSGAEVKKPGSSVKVSCKASGGTFSSYAISWVRQAPGQGLEWMGLVDPEDGETIYAEKFRGRVTITADTSTDTAYMELSSLRSEDTAVYYCATEESYGPWGQGTLVTVSS
VL: DIQLTQSPSSLSASVGDRVTITCQASQDISNYLNWYQQKPGKAPKLLIYDASNLETGVPSRFSGSGSGTEFTLTISSLQPEDFATYYCQQLNSYPLTFGGGTKLEIKR
notes: human IgG1; group 3
B8: anti-mutCALR antibody clone 39 (antibody, human IgG1, kappa, V domains shown)
VH: B7 VH with P4L, R65Q
VL: B7 VL with N34D
notes: human IgG1; group 3
B9: anti-mutCALR antibody clone 11 (antibody, human IgG1, lambda, V domains shown)
VH: EVRLVQSGAEVKKPGASVKVSCKVSGYTLTELSMQWVRQAPGKGLEWMGGFDPDDGETMYAEKFQGRLTVTEDTSTDTVYMELRSLTSEDTALYFCATSPGYDFFDYWGQGTLVTVSS
VL: QSALTQPRSVSGSPGQSVTISCTGTSSDVGGYNYVSWYQQHPGKAPKLMIYDVSKRPSGVPDRFSGSNSGNTATLTINRVEAGDEADYYCQVWDSSNDLLIFGGGTKLTVLG
notes: human IgG1; group 1
B10: anti-mutCALR antibody clone 48 (antibody, human IgG1, lambda, V domains shown)
VH: EVQLVQSGAEVKKPGSSVKVSCKASGGTFSSYAISWVRQAPGQGLEWMGGIIPIFGTANYAQKFQGRVTITADESTSTAYMELSSLRSEDTAVYYCASSPLRGSGWYWHYYYGMDVWGQGTTVTVSS
VL: SYVLTQPPSVSVAPGKTARITCGGNNIGSKSVHWYQQKPGQAPVLVIYQDRKRPSGIPERFSGSNSGNTATLTISGTQAMDEADYYCQAWDSSTAVFGGGTKLTVLG
B11: anti-mutCALR antibody clone 49 (antibody, human IgG1, lambda, V domains shown)
VH: B10 VH
VL: SYELTQPPSVSVAPGKTARITCGGNNIRAKHVHWYQQKPGQSPVLVIYQDSKRPSGIPERFSGSNSGSTATLTISRVEAGDEADYYCQVWDSSTVVFGGGTKLTVLG
B12: anti-mutCALR antibody clone 51 (antibody, human IgG1, lambda, V domains shown)
VH: B10 VH
VL: B10 VL with V3E, N26K, S29T, R51S, D91G, A95V
B13: anti-mutCALR antibody clone 43 (antibody, human IgG1, lambda, V domains shown)
VH: B10 VH with S16A
VL: not shown
B14: anti-mutCALR antibody clone 44 (antibody, human IgG1, lambda, V domains shown)
VH: B10 VH
VL: B10 VL with V12A, T21S, G28R, P39A, R51S, S93N, A95V
B15: anti-mutCALR antibody clone 47 (antibody, human IgG1, lambda, V domains shown)
VH: B10 VH
VL: B11 VL with N26K, R28G, A29T, H31S, S42A, Q49R, K52N, S68N, V77A, E78Q
B16: anti-mutCALR antibody clone 50 (antibody, human IgG1, lambda, V domains shown)
VH: B10 VH with E1Q, V2M
VL: B10 VL with S29T, A42S, A89V, A95E
B17: anti-mutCALR antibody clone 46 (antibody, human IgG1, lambda, V domains shown)
VH: B10 VH with E1Q
VL: B10 VL with V3E, G28R, I47V, R51S, A89V
B18: anti-mutCALR antibody clone 45 (antibody, human IgG1, lambda, V domains shown)
VH: B10 VH
VL: SYVLTQPLSVSVAPGQTARITCGGNNIGRKSVHWYQQKPGQAPVLVIYRDSNRPSGIPERFSGSNSGNTATLTISRAQAGDEADYYCQVWDSSTVVFGGGTKLTVLG
B19: anti-mutCALR antibody clone 17 (antibody, human IgG1, lambda)
heavy: not shown
light: SYVLTQPPSVSVAPGQTARITCGGSDIGDEIVHWYQQKPGQAPVLVVYDDSDRPSGIPERFSGSNSGNTATLTISRAQAGDEADYYCQVWDSSSDHLIFGGGTKLTVLGQPKAAPSVTLFPPSSEELQANKATLVCLISDFYPGAVTVAWKADSSPVKAGVETTTPSKQSNNKYAASSYLSLTPEQWKSHRSYSCQVTHEGSTVEKTVAPTECS
notes: human IgG1; group 1
B20: anti-mutCALR antibody clone 29 (antibody, human IgG1, lambda, V domains shown)
VH: B9 VH with R3Q
VL: SYVLTQPPSVSVAPGKTARITCGGNNIGSKSVHWYQQKPGQAPVLVVYDDSDRPSGIPERFSGSNSGNTATLTISRVEAGDEADYYCQVWDSSSDLLIFGGGAKLTVLG
notes: human IgG1; group 1
B21: anti-mutCALR antibody clone 24 (antibody, human IgG1, lambda, V domains shown)
VH: B9 VH with R3Q, F64L
VL: B20 VL with S75N, S94N, A103T
notes: human IgG1; group 1
B22: anti-mutCALR antibody clone 19 (antibody, human IgG1, lambda, V domains shown)
VH: B9 VH with R3Q, S75P
VL: B20 VL with P8L, P14L, K16Q, N25S, S29D, K30I, S31R, S75N, S94N, A103T
notes: human IgG1; group 1
B23: anti-mutCALR antibody clone 20 (antibody, human IgG1, lambda, V domains shown)
VH: B9 VH with R3Q
VL: B20 VL with S31G, S75N, S94N, A103T
notes: human IgG1; group 1
B24: anti-mutCALR antibody clone 26 (antibody, human IgG1, lambda, V domains shown)
VH: B9 VH with R3Q
VL: B20 VL with K16Q, S94I, L96H, A103T, L105V
notes: human IgG1; group 1
B25: anti-mutCALR antibody clone 30 (antibody, human IgG1, lambda, V domains shown)
VH: B9 VH with R3Q
VL: B20 VL with R19T, S29T, S75N, S94N, A103T
notes: human IgG1; group 1
B26: anti-mutCALR antibody clone 21 (antibody, human IgG1, lambda, V domains shown)
VH: B9 VH with R3Q, K23E
VL: B20 VL with K16Q, I20V, T21S, H33N, Q36R, V47I, S94N, A103T
notes: human IgG1; group 1
B27: anti-mutCALR antibody clone 25 (antibody, human IgG1, lambda, V domains shown)
VH: B9 VH with R3Q
VL: B20 VL with V3E, S11A, K16Q, S29R, S31A, S75N, S94N, A103T
notes: human IgG1; group 1
B28: anti-mutCALR antibody clone 28 (antibody, human IgG1, lambda, V domains shown)
VH: B9 VH with R3Q
VL: B20 VL with V3E, K16Q, S92A, S93D, L96Q, A103T
notes: human IgG1; group 1
B29: anti-mutCALR antibody clone 27 (antibody, human IgG1, lambda, V domains shown)
VH: B9 VH with R3Q
VL: B20 VL with K16Q, S29I, S51R, S75N, S94N, A103T
notes: human IgG1; group 1
B30: anti-mutCALR antibody clone 23 (antibody, human IgG1, lambda, V domains shown)
VH: B9 VH with R3Q
VL: B20 VL with K16Q, S29I, S75N, S94N, A103T
notes: human IgG1; group 1
B31: anti-mutCALR antibody clone 22 (antibody, human IgG1, lambda, V domains shown)
VH: B9 VH with R3Q
VL: B20 VL with S31N, S75N, S94N, A103T
notes: human IgG1; group 1
B32: anti-mutCALR antibody clone 18 (antibody, human IgG1, lambda, V domains shown)
VH: B9 VH with R3Q
VL: B20 VL with S55L, S75N, S94N, A103T
notes: human IgG1; group 1

The binders below were run against MBP protein (UniProt P0AEX9 27-392 = MBP) (assay: SPR (Biacore 8K), antibody captured on anti-human IgG (Fc), MBP injected).
Experimental: Experiment 1: Recombinant MBP-mutCALR Type 1 fusion protein was custom made at Cepter (cepterbiopartners.com). Data for the interaction of antibodies with recombinant MBP-mutCALR Type 1 fusion protein were collected at 25° C. on a Biacore 8K instrument (Cytiva, Marlborough, Mass.), and all reagents were obtained from Cytiva unless otherwise specified. The experiments were conducted using Tris-buffered saline (pH 7.2), 0.005% Surfactant P20, 1 mM CaCl₂) as running buffer. To prepare the capture surfaces, anti-human IgG (Fc) antibodies (Product #29234600) was amine-coupled onto a CM4 chip (Product #BR100534) under standard conditions using an Amine Coupling Kit (Product #BR100050). […] The kinetics parameters were obtained by applying 1:1 binding model to fit the data from multiple-cycle injection experiments using Biacore Insight Evaluation software.
B1: no binding (tested: 250 nM).
B2: no binding (tested: 250 nM).
B3: no binding (tested: 250 nM).
B4: no binding (tested: 250 nM).
B5: no binding (tested: 250 nM).
B6: no binding (tested: 250 nM).
B7: no binding (tested: 250 nM).
B8: no binding (tested: 250 nM).
B9: no binding (tested: 250 nM).
B10: no binding (tested: 250 nM).
B11: no binding (tested: 250 nM).
B12: no binding (tested: 250 nM).
B13: no binding (tested: 250 nM).
B14: no binding (tested: 250 nM).
B15: no binding (tested: 250 nM).
B16: no binding (tested: 250 nM).
B17: no binding (tested: 250 nM).
B18: no binding (tested: 250 nM).
B19: no binding (tested: 250 nM).
B20: no binding (tested: 250 nM).
B21: no binding (tested: 250 nM).
B22: no binding (tested: 250 nM).
B23: no binding (tested: 250 nM).
B24: no binding (tested: 250 nM).
B25: no binding (tested: 250 nM).
B26: no binding (tested: 250 nM).
B27: no binding (tested: 250 nM).
B28: no binding (tested: 250 nM).
B29: no binding (tested: 250 nM).
B30: no binding (tested: 250 nM).
B31: no binding (tested: 250 nM).
B32: no binding (tested: 250 nM).

Source: patent US20230272055A1 (Incyte, published 2023)
